The text below walks through data of paper PMC7990223.

Assay [1] concerns the target human ACE2 (human) (UniProt Q9BYF1). The assay can be described thus: flow cytometry on cells.
The target of assay [2] is mouse ACE2 (mouse) (UniProt Q8R0I0). The assay is described as follows: flow cytometry on cells. On the technique in general: In flow cytometry, cells or beads pass a laser one at a time.
mouse ACE2 (mouse), sequence (Q8R0I0 18-805): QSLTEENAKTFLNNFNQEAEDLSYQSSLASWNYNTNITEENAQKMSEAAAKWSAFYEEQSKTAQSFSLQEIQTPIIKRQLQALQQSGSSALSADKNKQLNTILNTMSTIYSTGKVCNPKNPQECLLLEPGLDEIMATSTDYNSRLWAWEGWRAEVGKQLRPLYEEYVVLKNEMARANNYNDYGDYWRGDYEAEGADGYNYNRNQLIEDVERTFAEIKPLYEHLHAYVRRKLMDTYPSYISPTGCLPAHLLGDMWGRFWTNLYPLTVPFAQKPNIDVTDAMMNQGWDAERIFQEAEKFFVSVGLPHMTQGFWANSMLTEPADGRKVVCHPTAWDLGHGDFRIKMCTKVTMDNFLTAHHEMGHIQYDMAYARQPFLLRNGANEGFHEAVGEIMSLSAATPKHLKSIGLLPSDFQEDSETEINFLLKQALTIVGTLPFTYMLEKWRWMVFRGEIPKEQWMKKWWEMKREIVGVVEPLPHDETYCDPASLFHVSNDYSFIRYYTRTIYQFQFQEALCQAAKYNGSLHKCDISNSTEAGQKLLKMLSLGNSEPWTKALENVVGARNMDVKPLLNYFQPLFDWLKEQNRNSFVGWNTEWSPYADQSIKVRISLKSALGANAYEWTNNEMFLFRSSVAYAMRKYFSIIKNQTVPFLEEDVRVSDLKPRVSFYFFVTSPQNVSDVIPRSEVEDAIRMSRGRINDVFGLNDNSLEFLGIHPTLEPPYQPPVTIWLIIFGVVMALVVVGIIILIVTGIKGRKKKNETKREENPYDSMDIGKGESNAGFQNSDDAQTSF

human ACE2 (human), sequence (Q9BYF1 18-805): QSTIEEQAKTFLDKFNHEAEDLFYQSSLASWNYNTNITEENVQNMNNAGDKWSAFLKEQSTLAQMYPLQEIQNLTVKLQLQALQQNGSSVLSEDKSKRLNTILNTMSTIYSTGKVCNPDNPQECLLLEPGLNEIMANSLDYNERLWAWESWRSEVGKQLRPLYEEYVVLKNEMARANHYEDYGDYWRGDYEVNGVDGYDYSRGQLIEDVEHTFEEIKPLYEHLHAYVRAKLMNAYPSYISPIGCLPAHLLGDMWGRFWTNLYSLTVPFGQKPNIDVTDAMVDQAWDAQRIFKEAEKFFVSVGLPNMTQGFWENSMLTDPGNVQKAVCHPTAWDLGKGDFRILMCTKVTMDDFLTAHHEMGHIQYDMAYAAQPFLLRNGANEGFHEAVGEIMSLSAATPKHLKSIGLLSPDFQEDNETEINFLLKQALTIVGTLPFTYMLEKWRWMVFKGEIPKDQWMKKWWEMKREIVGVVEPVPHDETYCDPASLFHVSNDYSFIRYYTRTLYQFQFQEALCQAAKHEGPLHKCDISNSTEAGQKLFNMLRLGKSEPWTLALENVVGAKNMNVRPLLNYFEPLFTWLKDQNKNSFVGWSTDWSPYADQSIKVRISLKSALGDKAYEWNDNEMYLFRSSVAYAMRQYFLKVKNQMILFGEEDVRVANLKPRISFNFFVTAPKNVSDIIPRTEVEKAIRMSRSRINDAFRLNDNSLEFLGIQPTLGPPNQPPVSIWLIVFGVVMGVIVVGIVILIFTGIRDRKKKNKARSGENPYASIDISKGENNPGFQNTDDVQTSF

Consider “S1 domain of the SARS-CoV spike protein C-terminally fused with Fc (from UniProt P59594 14-667) (Fc fusion)”, for which the percent of ACE2-expressing (zsGreen1+) cells positive for S1-Fc in assay [1] worked out at 64%; in assay [2], 40.4%.
